In experiment [1] the target is T1, extracellular domain (ECD) of human DLL3 (AdipoGen Life Sciences) (human, UniProt Q9NYJ7 27-492).
T1 construct: Bought and further purified by size exclusion chromatography; also called hDLL3 ECD; DLL3 ECD
T1 sequence: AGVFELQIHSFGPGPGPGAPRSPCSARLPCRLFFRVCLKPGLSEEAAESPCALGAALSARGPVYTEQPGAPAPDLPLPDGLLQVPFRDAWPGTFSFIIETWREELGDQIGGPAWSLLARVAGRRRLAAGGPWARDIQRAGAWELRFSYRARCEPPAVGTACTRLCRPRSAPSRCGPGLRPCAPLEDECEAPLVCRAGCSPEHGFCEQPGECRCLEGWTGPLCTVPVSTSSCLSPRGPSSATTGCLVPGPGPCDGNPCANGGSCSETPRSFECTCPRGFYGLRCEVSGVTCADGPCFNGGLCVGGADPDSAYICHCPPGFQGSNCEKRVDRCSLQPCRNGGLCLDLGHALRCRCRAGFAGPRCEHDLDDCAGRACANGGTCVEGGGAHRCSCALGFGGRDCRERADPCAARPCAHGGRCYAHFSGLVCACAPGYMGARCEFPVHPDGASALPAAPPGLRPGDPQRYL
The experiment in a line: SPR (Biacore 8K), 37 C, antibody captured on anti-mouse Fc, DLL3 ECD injected, 1:1 fit. The text has this:
(§1) The binding kinetics of different anti-DLL3 antibodies to recombinant proteins of different domains of human DLL3 were studied by surface plasmon resonance (SPR) using a Biacore™ 8K instrument. These anti-DLL3 antibodies were produced from mouse hybridomas, and each included a heavy chain variable region and light chain variable region described herein. Briefly, antibodies recognizing human IgG Fc and antibodies recognizing mouse IgG Fc were immobilized on different channels of a Biacore™ 8K chip to allow simultaneous analysis of human and murine anti-DLL3 antibodies. Murine anti-DLL3 antibodies were captured on the anti-mouse Fc channel of the Biacore chip. The human anti-DLL3 antibody from Stemcentrx (San Francisco, Calif.) was used as a control and was captured onto anti-human Fc channel of the Biacore™ chip. Different concentrations of DLL3 ECD, DLL3 N-terminal domain, EGF2-6, EGF3-6, EGF4-6, or EGF5-6 domains of DLL3 were injected. Experiments were performed at 37° C. Biacore™ 8K evaluation software was used for all data analysis. To obtain kinetic rate constants double-referenced data were fit to a 1:1 interaction model using Biacore™ 8K Evaluation software (GE Healthcare, Marlborough, Mass.). The equilibrium binding constant KD was determined by the ratio of binding rate constants kd/kₐ.
Table 36 lists the calculated binding kinetics (KD). […] Stemcentrx anti-DLL3 antibody was used as a control.

The target in experiment [2] is T1, extracellular domain (ECD) of human …. The experiment in a line: SPR (Biacore 8K), 37 C, antibody captured on anti-mouse Fc, DLL3 ECD injected, 1:1 fit; approximate.
Excerpt: as §1
(§2) Table 36 lists the calculated binding kinetics (KD). […]

Experiment [3] deals with T2, recombinant human DLL3 (ELISA coat) (human, UniProt Q9NYJ7 27-492).
T2 sequence: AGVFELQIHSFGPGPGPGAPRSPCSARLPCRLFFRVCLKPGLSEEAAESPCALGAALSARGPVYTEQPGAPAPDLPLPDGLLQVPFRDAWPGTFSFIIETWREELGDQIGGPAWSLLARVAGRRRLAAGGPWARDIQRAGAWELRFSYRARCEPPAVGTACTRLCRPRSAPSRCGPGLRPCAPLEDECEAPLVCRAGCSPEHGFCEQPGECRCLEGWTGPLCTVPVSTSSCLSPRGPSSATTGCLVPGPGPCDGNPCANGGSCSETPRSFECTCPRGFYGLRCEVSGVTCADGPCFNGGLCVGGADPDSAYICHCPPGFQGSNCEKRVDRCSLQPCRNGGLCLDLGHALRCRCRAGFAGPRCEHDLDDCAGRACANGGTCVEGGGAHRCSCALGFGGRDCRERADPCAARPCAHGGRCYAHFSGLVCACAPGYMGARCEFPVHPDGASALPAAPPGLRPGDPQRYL
Nature of the experiment: ELISA, plate coated with recombinant human DLL3 0.5 µg/ml, anti-mouse IgG-HRP. The protocol: (§3) To investigate the binding of anti-DLL3 antibodies to human DLL3, wells of high binding flat-bottom plates were coated with recombinant human DLL3 diluted to 0.5 μg/ml. To assess cross-reactivity of the antibodies to DLL1/DLL4, which are closely related family members to DLL3, plates were coated with recombinant human DLL1 diluted to 1 μg/ml, or human DLL4 diluted to 0.5 μg/ml. […] Binding was detected using anti-mouse IgG-HRP and 3,3′,5,5′-Tetramethylbenzidine (TMB) substrate. Signals were normalized to the corresponding positive control antibody.
Table 38 lists the calculated EC₅₀ based on the binding data from FIG. 24.
On the technique in general: An ELISA detects its analyte on a solid surface through an enzyme-linked reagent.

The target of experiment [4] is T1, extracellular domain (ECD) of human …. Nature of the experiment: SPR (Biacore 8K), 37 C, antibody captured on anti-mouse Fc, DLL3 ECD injected, 1:1 fit; off rate beyond instrument sensitivity.
Excerpt: as §1, §2
For orientation: In SPR one partner is held on a chip, and binding of the other changes the refractive index at the surface.

The target of another experiment is T3, recombinant human DLL1 (human, UniProt O00548 18-540, limits assumed).
T3 sequence (looked up): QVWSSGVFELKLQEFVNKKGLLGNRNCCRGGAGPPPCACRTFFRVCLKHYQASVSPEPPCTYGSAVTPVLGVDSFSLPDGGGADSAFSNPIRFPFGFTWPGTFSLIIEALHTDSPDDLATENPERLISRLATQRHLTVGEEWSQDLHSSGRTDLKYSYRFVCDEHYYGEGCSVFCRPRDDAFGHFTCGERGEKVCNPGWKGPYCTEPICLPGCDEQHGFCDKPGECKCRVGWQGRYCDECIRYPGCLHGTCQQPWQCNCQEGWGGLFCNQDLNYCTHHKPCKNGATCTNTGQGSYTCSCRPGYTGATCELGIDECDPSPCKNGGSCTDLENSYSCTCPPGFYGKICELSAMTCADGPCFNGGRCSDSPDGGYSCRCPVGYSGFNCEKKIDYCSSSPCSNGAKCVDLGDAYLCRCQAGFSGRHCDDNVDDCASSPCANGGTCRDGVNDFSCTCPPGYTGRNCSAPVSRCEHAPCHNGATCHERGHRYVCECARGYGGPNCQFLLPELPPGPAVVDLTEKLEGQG
The experiment in a line: ELISA, plate-bound recombinant human DLL1 (1 µg/mL), anti-mouse IgG-HRP/TMB, % of positive control max. The protocol:
as §3

For a further experiment, the target named is recombinant human DLL4 (human, UniProt Q9NR61 27-524, limits assumed). Nature of the experiment: ELISA, plate-bound recombinant human DLL4 (0.5 µg/mL), anti-mouse IgG-HRP/TMB, % of positive control max. As to the method: as §3
Sequence of recombinant human DLL4 (Q9NR61 27-524 limits assumed): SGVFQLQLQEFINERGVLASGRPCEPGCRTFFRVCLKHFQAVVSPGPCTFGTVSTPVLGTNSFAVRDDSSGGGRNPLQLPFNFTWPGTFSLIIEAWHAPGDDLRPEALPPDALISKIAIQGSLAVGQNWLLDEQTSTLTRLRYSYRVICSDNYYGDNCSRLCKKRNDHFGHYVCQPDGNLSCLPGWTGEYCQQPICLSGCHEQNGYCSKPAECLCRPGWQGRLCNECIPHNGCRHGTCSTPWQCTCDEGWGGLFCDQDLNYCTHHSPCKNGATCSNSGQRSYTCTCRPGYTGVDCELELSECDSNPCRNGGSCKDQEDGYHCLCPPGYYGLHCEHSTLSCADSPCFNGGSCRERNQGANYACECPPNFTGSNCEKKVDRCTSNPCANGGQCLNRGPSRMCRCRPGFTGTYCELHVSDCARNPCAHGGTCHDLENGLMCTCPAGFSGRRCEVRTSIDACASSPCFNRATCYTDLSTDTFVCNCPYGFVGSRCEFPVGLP

This is an account of results in patent publication US20210221894A1 (DRAGONFLY THERAPEUTICS, published 2021).

B1: anti-DLL3 antibody clone 2F7 (antibody, V domains shown)
VH: QVQLQQSGAELMKPGASVKLSCKATGYTFTGYWIDWIKQRPGHGLEWVGEILPGSDNINYNEKFRGKATFTADTSSNTAYIQLSSLTTEDSAIYFCARCGTGPWFTYWGQGTLVTVSA
VL: NIMMTQSPSSLAVSAGEKVTMSCKSSQSVLYSSNQKNYLAWYQQKPGQSPRLLIYWASTRASGVPDRFTGSGSGTDFTLTITNIQPEDLAVYYCHQFLSSTWTFGGGTKLEIK
notes: Murine antibody produced from a mouse hybridoma
The term kon denotes the rate constant with which the complex forms. One may read the Kd as a measure of binding affinity in units of concentration. A high value points to weaker binding. The EC50 is the concentration needed to bring the measured effect to its halfway point. As usually defined, the koff is the rate constant with which the complex falls apart. Read a high koff as fast dissociation. In experiment [1], B1 came in with an on-rate (kon) of 72100 M⁻¹ s⁻¹. Also, the Kd in experiment [2] was less than 0.011 nM. Besides, in experiment [3], the EC50 turned out to be 0.3 nM. Moreover, in experiment [4], the koff is approximately 1.15e-06 s⁻¹. In addition, the binding result with recombinant human DLL1 and in the experiment with recombinant human DLL4 was “no binding” throughout.
